Source: article PMC6277173

Assays:
[1] = molecular target: human anti HIV-1 monoclonal antibody 2F5 IgG (human); test: BLI; streptavidin bio-assay (Octet QKe): biotinylated 2F5 IgG loaded on streptavidin biosensors, association and dissociation of purified Ab2/3H6 variants; kinetics buffer; KD averaged over different Ab2/3H6 concentrations
[2] = molecular target: BM09 (su3H6 with T94hR, Y27hA); test: BLI; protein A bio-assay (Octet QKe): Ab2/3H6 variants captured from concentrated culture supernatants on protein A biosensors, blocked with an unspecific scFv-Fc antibody, association and dissociation of 2F5 IgG measured; kinetics buffer; KD averaged
BM07 (su3H6 with T94hR) = test: as above
[3] = molecular target: BM07/vL01 (su3H6 with T94hR, F46lL); test: as above
[4] = molecular target: BM07/vL03 (su3H6 with T94hR, F46lL, Q49lS); test: as above
[5] = molecular target: BM07/vL02 (su3H6 with T94hR, Q49lS); test: as above

| Binder | Kd [1] | also measured |
| --- | --- | --- |
| BM07/vL03 (su3H6 with T94hR, F46lL, Q49lS) (antibody, V domains shown) VH: EVQLVQSGAEVKKPGATVKISCKVSGYTFTDYFMHWVQQAPGKGLEWMGYINCYTGATNYSQKFKGRVTITADTSTDTAYMELSSLRSEDTAVYYCARTSIGYGSSPPFPYWGQGTLVTVS VL: ETTLTQSPAFMSATPGDKVNISCITSTDIDDDMNWYQQKPGEAAILIISDGNTLRPGIPPRFSGSGYGTDFTLTINNIESEDAAYYFCLQSDNLPYTFGQGTKLEIK | 29 nM |  |
| BM09 (su3H6 with T94hR, Y27hA) (antibody, V domains shown) VH: EVQLVQSGAEVKKPGATVKISCKVSGATFTDYFMHWVQQAPGKGLEWMGYINCYTGATNYSQKFKGRVTITADTSTDTAYMELSSLRSEDTAVYYCARTSIGYGSSPPFPYWGQGTLVTVS VL: ETTLTQSPAFMSATPGDKVNISCITSTDIDDDMNWYQQKPGEAAIFIIQDGNTLRPGIPPRFSGSGYGTDFTLTINNIESEDAAYYFCLQSDNLPYTFGQGTKLEIK | 8300 nM |  |
| BM07/vL01 (su3H6 with T94hR, F46lL) (antibody, V domains shown) VH: EVQLVQSGAEVKKPGATVKISCKVSGYTFTDYFMHWVQQAPGKGLEWMGYINCYTGATNYSQKFKGRVTITADTSTDTAYMELSSLRSEDTAVYYCARTSIGYGSSPPFPYWGQGTLVTVS VL: ETTLTQSPAFMSATPGDKVNISCITSTDIDDDMNWYQQKPGEAAILIIQDGNTLRPGIPPRFSGSGYGTDFTLTINNIESEDAAYYFCLQSDNLPYTFGQGTKLEIK | 28 nM |  |
| BM07 (su3H6 with T94hR) (antibody, V domains shown) VH: EVQLVQSGAEVKKPGATVKISCKVSGYTFTDYFMHWVQQAPGKGLEWMGYINCYTGATNYSQKFKGRVTITADTSTDTAYMELSSLRSEDTAVYYCARTSIGYGSSPPFPYWGQGTLVTVS VL: ETTLTQSPAFMSATPGDKVNISCITSTDIDDDMNWYQQKPGEAAIFIIQDGNTLRPGIPPRFSGSGYGTDFTLTINNIESEDAAYYFCLQSDNLPYTFGQGTKLEIK | 330 nM |  |
| BM07/vL02 (su3H6 with T94hR, Q49lS) (antibody, V domains shown) VH: EVQLVQSGAEVKKPGATVKISCKVSGYTFTDYFMHWVQQAPGKGLEWMGYINCYTGATNYSQKFKGRVTITADTSTDTAYMELSSLRSEDTAVYYCARTSIGYGSSPPFPYWGQGTLVTVS VL: ETTLTQSPAFMSATPGDKVNISCITSTDIDDDMNWYQQKPGEAAIFIISDGNTLRPGIPPRFSGSGYGTDFTLTINNIESEDAAYYFCLQSDNLPYTFGQGTKLEIK | 59 nM |  |
| human anti HIV-1 monoclonal antibody 2F5 IgG (antibody, V domains shown) VH: RITLKESGPPLVKPTQTLTLTCSFSGFSLSDFGVGVGWIRQPPGKALEWLAIIYSDDDKRYSPSLNTRLTITKDTSKNQVVLVMTRVSPVDTATYFCAHRRGPTTLFGVPIARGPVNAMDVWGQGITVTISS VL: ALQLTQSPSSLSASVGDRITITCRASQGVTSALAWYRQKPGSPPQLLIYDASSLESGVPSRFSGSGSGTEFTLTISTLRPEDFATYYCQQLHFYPHTFGGGTRVDVR |  | Kd [2]: 39000 nM; Kd (BM07 (su3H6 with T94hR)): 170 nM; Kd [3]: 22 nM; Kd [4]: 21 nM; Kd [5]: 95 nM |
| mouse antibody Ab2/3H6 (wt3H6) (antibody, V domains shown) VH: GVQLQQSGPELVKTGASVKISCKASGYSFTDYFMHWVKQSHGKSLDWIGYINCYTGATNYSQKFKGKATFTVDTSSNTAYMQFNSLTSEDSAVYYCARTSIGYGSSPPFPYWGQGTLVTVS VL: ETTVTQSPASLSMSIGEKVTIRCITSTDIDDDMNWYQQKPGEPPRLLISDGNTLRPGVPSRFSSSGYGTDFVFTIENMLSEDVADYYCLQSDNLPYTFGGGTNLEIK | 35 nM |  |
